These results are taken from article PMC7948419, “Endophilin recruitment drives membrane curvature generation through coincidence detection of GPCR loop interactions and negative lipid charge” (The Journal of Biological Chemistry, 2020).

The target of test [1] is beta1-adrenergic receptor TIL (UniProt P08588). Particulars: cited from earlier work.
Test [2] concerns the target T1, full-length rat endophilin A1 (C108S, E241C, C294S, C295S), labeled with Alexa 594-maleimide (rat, UniProt O35179 1-352, C108S | E241C | C294S | C295S, Alexa 594-maleimide on the cysteine (E241C)).
T1 construct: endophilin A1, rat, full length; The introduction calls endophilin a dimeric protein; also called endophilin-Alexa 594; single cysteine mutant of rat endophilin A1
The experiment in a line: confocal fluorescence imaging of recruitment to peptide-conjugated GUVs; TIL-Alexa 488 covalently conjugated (cysteine-maleimide) to GUVs of MCC-PE/DOPC/DiD 5:94.5:0.5; Alexa 594-labeled protein added in solution; HEPES buffer (20 mM HEPES, 150 mM NaCl, 1 mM TCEP, pH 7.4); room temperature. Particulars: both partners purified.

T1 sequence (O35179 whole entry C108S/E241C/C294S/C295S): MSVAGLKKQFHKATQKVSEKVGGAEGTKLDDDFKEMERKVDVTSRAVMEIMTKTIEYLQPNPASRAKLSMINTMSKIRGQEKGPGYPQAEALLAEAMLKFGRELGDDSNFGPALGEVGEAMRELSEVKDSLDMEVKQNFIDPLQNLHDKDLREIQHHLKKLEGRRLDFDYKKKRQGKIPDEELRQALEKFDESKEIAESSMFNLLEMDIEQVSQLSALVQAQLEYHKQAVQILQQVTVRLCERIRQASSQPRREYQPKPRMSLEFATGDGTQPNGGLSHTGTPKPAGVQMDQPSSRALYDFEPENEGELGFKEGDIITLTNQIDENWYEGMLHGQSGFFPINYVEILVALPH

The term Kd denotes the constant that tells how readily two partners part at equilibrium. Regarding endophilin A1 (from UniProt Q99962), in test [1], the Kd is 47 nM.

B1: third intracellular loop (TIL) of the β1-adrenergic receptor (amino acids 246–325), labeled with Alexa 488 (domain or fragment, UniProt P08588 246-325, looked up)
chain: RVFREAQKQVKKIDSCERRFLGGPARPPSPSPSPVPAPAPPPGPPRPAAAAATAPLANGRAGKRRPSRLVALREQKALKT
modifications: Alexa 488 on the N-terminal amine (30 to 50% labeling); Cys261 coupled to the maleimide lipid MCC-PE in the experiments with TIL-conjugated vesicles
notes: β1-adrenergic receptor, third intracellular loop, amino acids 246–325, cloned from the pcDNA3-Flag beta-1-adrenergic-receptor vector; 80 residues, 8861 Da; Cloned into BamHI/EcoRI of pGEX6p1 and cut with PreScission protease, so a few vector residues may remain at the N-terminus (surmise); also called TIL peptide; TIL-Alexa 488; source: E. coli BL21-CodonPlus (DE3)-RIL, purified (GST trap, …)
Turning to B1, the binding result in test [2] is recorded as “binds”.
